test: soluble fraction after stress (log2 fold change); higher = more stays soluble; pooled small domains, quantitative proteomics; settings: stress: 50 degC
How it was run: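 Pooled custom libraries of small protein domains were measured in a high-throughput format, with quantitative proteomics as the read-out. Each library was stressed at 50°C. Aggregation propensity is given as the base-two logarithm of the fold change in how much of each protein stays soluble after the stress. Higher values mean a larger share of the protein remains in solution.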

Sequence	soluble fraction (log2)
HMSGEVLTAVVPETASGERLDKVLPQIFPPYSRSQLQTWLKEGRVTLDREIPAARLAVIGGETLRLEVPSL	-0.145
HMGTSSAEIAAELRAQIFAGELRPGEMLPSAREITGTWNVAIATASRVHALLRSEGLATPVPGVGTVVAT	0.0105
HMKFTSEKDISLLELVKAKMGFVSNTKARNVIKIGQIMVSGKVIKIPSTLIKPGTEVELARRV	-1.66
HMTAIWKTITATLTHDIATGKYAPGDRLPTEAQLAARFGVNRHTVRRAISDMNESGLTYSRRGAGVFVAQ	-2.59
HMMVIMRANATEPQIANVVAYVEKNGLNAHLSRGAERTVIGVVGDIRRVSKETFELMDGVDSVMRIS	-0.356
HMAGTDLSERESEIAMLLLKGYPYKLIASRLYISESTVKSHVQNIYGKLGIHSRTELIEQFSAS	-0.558
HMHDAKAEIIRLSALLTEYQRSYYIDGHSQVSDLEYDRLFDRLVALETSHPELREADSPTQRV	-0.855
HMVEVPNVIGMTKPELTQQFVNLKLDGSGEGDVVVQQSPSEGSKVKEGSTVRVYFG	0.0119
HMTAMDTQQKKLIIMYHDIHRLRNVEHFTIQRIADHLLLNFRTVKKFLEMTQEEFDKFSENRW	-3.01
HMITKEDVANKKVNLLFFGNFHKMKLPDFEWGITEMMQDRDYLYGSLTKDLYFLGLVLDRKYKI	0.0334
HMINPASEKQLSFANSLIAKKEGGTETLNHYLHNRKVSSLEELDRKDVSEIINALKFAKEVT	0.217
HMTNVVSKNKAKEIAMNIINDTVLQGQTAATFKEIVKANGVYVVKIEIQGQEYTSYITKDGKIVFPYGVEV	-0.451
HMSKMVEMSQEKSREKVARVKIEIQKMLDRKERVTVSGLERATGFSNSFFYRNEEVNQAVKEAQLKQ	0.0985
HMSMSLQFLSRRIRLQREKRGLKQHDIAHALQISPQAVSKWERGENAPDIALLRPLAGLLGVSIDWLMGGD	-2.15
HMDEAETELIRRMVSEHPPTTKRERDIVQMRLRGYLFVEIGEAYGISFQRAAQIYNAAVEKIKEYWD	0.00188
HMNVVINNELVSLMVEAMKDGVSSKSIQEEFEGYKISGKTITKKVLTAHVNKALEVFADMQE	-0.213
HMKESRLFRILYYLLQHKKATAPELAEEFEVSVRTIYRDIDYISSAGVPIYATQGKDGGIAILDSF	-0.65
HMPVSRMRARHEALARGVMGIHAGGFSAVYGYRKVWHGLIGKGWDPGEVGRDQVMNIMRGLGMQGVRR	0.266
HMKFIPPSLEEARAYFVEKGSSEPEAEKFVNHFDSIGWKVGRARTPMKKWKSAANNWIANNREWNQ	-0.407
HMKKTFSKSSVMEAIFRDIPNITIPNAHEVYTLIKNISVMNKRKSITSEDIEKAYDALGLTP	-0.865
HMSEIKDRLREARRNKGLSQAGLSKLLGVSQASIAAIESGRNKRPTNLVSIAKALDVSPYWLETGK	-0.124
HMIVKQPDIRKQELLDIGVRLYFEAGEKGVSIQQVVKQAGVATGLFYYYFSSKDAFLDEALNDYID	0.102
HMDGPGAGGRFLAEDLGTGKMTLEALQRHYVTLVYSRTGKYEETARRLEIDRRTVKKYLDEELLAELRET	0.084
HMPILRDEVYLSIKEAILTGELAPGERISIGRLLPQIGFSPTPIREALLKLEQEGFVSRLQRGGFIVSR	-0.991
HMINITALVKQLGGVDISKFNSAFKLLQQGKPLNTISNKVMADTFVALMKNSDEALNTKFRAAFKKI	-0.272
HMKKKSYIVSFATDEDAQRFAREGFEVISLSGRQITVSLKGEMMPLVKALGSYQVVGLETVA	-0.19

Sequence	soluble fraction (log2)
HMNSNTIIINDIMTKIGKEVKNFTEIYSIILKALAEHGEEYVRTNTEYALKNFTGNFDIFLEQLLLK	-0.201
HMKEINFTIEESAKGRLDKVIAENVADLTRSQVQSLIKKGQILVNDAPTTNRYQVKPNDQVIIKLPDPV	0.339
HMIGDYALILNIKGGSDWYLGNRVELLFTDGTSKIVTTDKDYNAKKDMVPTQIVTYKVNDNGEYSLKALPT	-2.01
HMGSDQEAAMARQDRLSTLVDYVVERGSVHVDDIVADLGVSPATVRRDLDALAAQQLIIRTRGGATANHT	0.0263
HMPRPLVAPMPGLIVRVTAVVGDSVDAGQGLVVMEAMKMENELRTTTAGVVKTVHVQPGVAVEKGALLIEF	-0.893
HMDIMTVGERVKKLAEKQGISLRELAKKAELSYNTVYSITRRGSERVAPDTISRLANALGVNVNELT	0.0708
HMEQTMNDMLKLVDLLPQNQQDIVRMRFYENMSFKEIAESNQISINTALGRMRYAILNLRKYAAERNL	-2.35
HMGDTIFINNNFYVKHIVEFGETIDIISKIYDVSVNKILETNETSTKLYSGQSLFIPININV	-3.4
HMGTYSKQDLLQLIGRYPDGIGKREINLAFSKGTKIRNLLNIELNELLNERLITLSQGGLYIKP	-1.56
HMAEANTEADFVAIGVRAELLPILQKLGVHTIEQLKGIKATKLFNDIPGMRKKLKLDAVQNPTLQEIEGWL	0.00541
HMPGEIKKIPINSISYQDLKQHPYFDAYLAKQVIKYRETKGRIENIEQFREATRAYQSLIEKVTPYLDFE	0.14
HMSKIRTFRVKTVAVDQAYQVLKDYSPIKISTESNAVIIDLDESKTPAEIAGYLEKNGIKVDNIEVIAESE	0.179
HMQGIPVTVTAERANLRSGPGTSFDKLGQVVQGDVLTLLEVQNDWYKVKTAEGKTAFVAAYLVNSP	0.0205
HMDEEQIASRRALIMRAAREIMETQGMEALSIRKIAAMIQQTPGIIYHYFSGKEELMLAVVQEGYH	0.111
HMGDPSSERNIQKSIFILIGEKALSVQDISRSLGMPNDIIDKALISGVERNLWLSSDKGEYYL	-1.1
HMEVEIPSREALLGLVQKHLKPVSFDEFVSHFKLGDERQQVGIKRRLRAMERDGQLVYTKANSYGLPDRM	0.194
HMADNILPAQTDAIKALATENGFSNESLEKYLIENYGTTIYGLSRNQGIQIINLFQSENPPKP	0.144
HMLAQISDEGAIGAVVARVLDAHPNEVARYHAGEEKVAKFLMGAAMRELRGKGDPAVVQRLLSEGLDARRV	0.119
HMDGDVAVKGGDGVLEVRLANAANVRVYNLAGRLMADYTGTELHMPLPKGVYMVVAGDNRTKVVV	0.074
HMLPERIQTIVALIGHGRAMDLVREFGGQEIKFPAQEGNDTWAALVEVIGEAATRKLAAVFGGGQAPPVYI	-0.778
HMNEKTGTLTVYSSPGWAKVYIDGEYKGITPVMANLTYGDHYVKLTLDGYDSIGNHIDVNSPDQSYTGKF	-0.494
HMTYNEYPEKEMQDLIDKSISQQEQAASQYGYSLGDYVTARYGFQSESDFREYVQGLAEDYMKEKI	-0.198
HMADLNQTDIDSITKSVGGVEQYKSLMDWAGKTLSQDAIDSFDDLVNTGNKGSIQLAVNGLVAQYQNDN	0.0325
HMNHHEIIMKNIDTLLKEKNISISKLEKSLGISNGYISRLRNGKYNFSLDLLLKLAKKFKISIDYLLTDFD	0.00249
HMDNEIIEEEKITTLMITHNMRDAIKYGNRLIMLNEGRVIFDISGEEKKNLTVQELLEKFEK	-0.118
HMPELPPHELLRALMVEHDIKQSELPEVGPQPVVSDVLAGKRALNLRQVAALAARFHVPMEVFT	-0.153

Sequence	soluble fraction (log2)
HMSVTIDAGGKVYLQESEIADDQLVPRLVAISNNGYDKPIYLRADKTVGYGRVAEVMSLLNAAGFTKLVLV	-0.0288
HMSVGDLLENLIRETRAQFSAPPESLGVAEKRRFVALLSQKGGFLLKGAVSRAASVLGVSEQTVYRYLKDS	-0.218
HMQATDEEIENFTSSAITAYKLTKEEGYIISMRDMKPIMEIVKTEYPMANGKVVSKVMNNYING	-0.0668
HMNHTIEENDRVLILDPRGKKYLITVTNRVFHTNLGKLDISELIGKNYGDKIKSHMGKNFSILKPNLIDYI	-0.0858
HMSLREKNKARTRTAILNAARDLAKQGQWDAITTRQIADAAGVSYQTLYNYYPSKASILVEMLL	-1.45
HMDFLKSVDLSKYSKVESLILSHLSKGDFDIDDFIRSFSLGTDEVTRAIVSLEIEGIILRKGNRIFRKKS	-0.0402
HMSFNISPTKKLILELIMNGTAAVEAIAVKAGISKGMAYNHLRELRSMGYITDEGGYKITDSGRLAV	-0.414
HMLPLLAFDEKLNRLGYGGGFYDRTLASLAHKGNTITAIGIAYESQKMDKVPTGYFDRPLDGVLTPSGLIM	0.0274
HMVANDQILNQYGISDREAEIIGLLIEGLSNQQIAKQLYISPNTVKTHIKNIYAKVGVNNRLQLFSLLK	-0.173
HMNNFNVVVGKAIKNSFNTRENYITINAGKVLGIKTDMGVINDKGIVGIVEKTSKDFATIQSVLNIKS	0.00115
HMSVDAMDEANERKMAKTFNMIVLGGLLKIRPIVSIESVIKALRKTLPERHHHLIPMNEEAIHIGMDII	0.0597
HMQRFIHITVSDVHQATRLLEEEMQLTNYSVAENNAIKIFEFTYEPQEINHLFGKNGIEVSSLFIGS	-0.134
HMVSLSNQVFEKIEYDILSGKYKIGEIISEKRLSSELGVSRTPIREALGRLSEEGLVGDSPSGTVVLGI	-0.431
HMDAGLAEIIRSFEDNLGGFPPAAREDLLGWREIFTDDLILLAIKKAALAGVRKWSYVNGILKVWKNEGVR	-0.742
HMGEGTAVGKALKFLAAQGKKFAPELLDMAGSLTGVEALSKLGDAIKGDPELSELDKRILLAELETDAV	-0.0713
HMNDGTIRVGTNVTIKPSAKRWATGQNIYYGVKGKTYKVIQMNGNRLLLDKVISWINKGDVYVPGS	-0.501
HMNLGETIYNLRKEKKLSQGDLAEQLSVSRQSVSKWENNSAVPDLDKLVKLSTIFGVSLDELVKG	0.0247
HMAPSVNEVAWAQKIIDAHAEAAAAGKGLVVVDGKLIENLHVEEAKQLLSLSDAIAKNDASNG	0.16
HMSMDPYTVLGVNKSSTDSQIKNAYKNLAKQHHPDRGGNEAKFKEISTAYEQIKTAEKRQQYDMSQQF	0.383
HMNSTEQQTERFLATLTSLGGNAGNQRLQEALGWQGSTYQRIKQHLLDEGRIRTGRGRGGSVALSEATAT	0.143
HMDPFAYEVKVTDLAAGSSEIRTVYTEQGSFNIPSGMSGNLKIQVRSASMYDEVEPSDWYTIGEEDIN	-0.0779
HMSASEKLFEARKNLNIVNVLGKNPVDRYDIVKILKHGDHYHIYDSKGNEGITYTNPKSLYPEAEFGEYQG	0.12
HMALHLPTTTINGRQYYYFKSKEKITVYGLSKRLGLTRQEIVEHNPSAVDGIKRGSTLYFPVDEFAD	-2.09
HMGVNEGVNKLFKTIQETPGKRMPYYALATDVPEKTIERWLKQLREEGKIEFKGSAKTGGYFVIDK	0.0649

Reference: the domain aggregation screens of Martell et al. (2025)
